Reference: PMC7226213 (Cancer Science, 2020)

Columns and labels:
[1] = biological target: T1, fibroblast growth factor 19 (FGF19), full-length (human, UniProt O95750, biotin (where co-transfected with BirA biotin-protein ligase)); assay: SPR
[2] = biological target: T1, fibroblast growth factor 19 (FGF19), …; assay: ELISA

T1 sequence (O95750 25-216): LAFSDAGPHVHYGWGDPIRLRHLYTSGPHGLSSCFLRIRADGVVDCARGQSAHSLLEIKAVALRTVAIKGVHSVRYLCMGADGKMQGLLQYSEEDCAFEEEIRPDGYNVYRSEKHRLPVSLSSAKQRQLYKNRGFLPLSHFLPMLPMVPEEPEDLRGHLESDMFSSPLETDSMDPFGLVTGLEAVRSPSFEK

B1: 31A3, human IgG1 Ab (antibody, V domains shown)
VH: not shown
VL: QAGLTQPASVSGSPGQSITISCTGTSSDVGGYNYVSWYQQHPGKAPKLMIYDVSNRPSGVSDRFSGSKSGNTASLTISGLQTEDEADYYCSSYTRSSTLVFGGGTQLTVL
- binding result [1]: binds

B2: G1A8, human IgG1 Ab (antibody, V domains shown)
VH: not shown
VL: QAGLTQPASVSGSPGQSITISCTGTSSDVGGYNYVSWYQQHPGKAPKLMIYDVSNRPSGVSDRFSGSKSGNTASLTISGLQTEDEADYYCSSWTRSSGLVFGGGTQLTVL
- fold increase of affinity over 31A3 [1]: 27 fold
- fold slower dissociation rate than 31A3 [1]: 60 fold

B3: G1A8-Fab (Fab, V domains shown)
VH: not shown
VL: QAGLTQPASVSGSPGQSITISCTGTSSDVGGYNYVSWYQQHPGKAPKLMIYDVSNRPSGVSDRFSGSKSGNTASLTISGLQTEDEADYYCSSWTRSSGLVFGGGTQLTVL
- IC50 [2]: 1.39 nM
